Experimental data from patent US10858423B2, “Composition for the treatment of IGF-1R expressing cancer” (PIERRE FABRE MEDICAMENT, priority 2015, dated 2020).

B1: 810D12: first IGF-1R mouse monoclonal antibody, hybridoma CNCM I-4893; VH SEQ ID No. 7, VL SEQ ID No. 8 (antibody, V domains shown)
VH: EVQLQQSGPELVKPGASVKMSCKASGHTFTSYMLHWVKQKPGQGLEWLGFINPYNDVTKYNENFKGKATLTSDKSSSTAYMELNSLTSEDSAVYFCVTTAYYGNGRYFDVWGAGTTVTVSS
VL: DIQMTQTTSSLSASLGDRVTISCRASQDITNYLTWYQQKPDGTVKVLIYYTSRLYSGVPSRFSGSGSGSDYSLTINNLEQEDIATYFCQQGYSLPWTFGGGTKLEIK
modifications: 810D12 I-4893, heavy chain, Variable domain; 810D12 I-4893, light chain, Variable domain
B2: 816C12: first IGF-1R mouse monoclonal antibody, hybridoma CNCM I-4894; VH SEQ ID No. 17, VL SEQ ID No. 18 (antibody, V domains shown)
VH: EVQLQQSGPELVKPGASVKMSCKASGHTFTSYVLHWMKRKPGQGLEWIGYINPHNDVTKYNENFKGKATLTSDKYSSTVYMEVSSLTSEDSAVYYCVSTAYYGNGRYFDVWGAGTTVTVSS
VL: DIQMTQTTSSLSASLGDRVTISCRASQDINNYLNWYQQKPDGTVKLLIYYTSRLHSGVSSRFSGSGSGTDYSLTISNLEQEDIATYFCQQGNTLPWTFGGGTKLEIK
modifications: 816C12 I-4894, heavy chain, Variable domain; 816C12 I-4894, light chain, Variable domain
B3: hz208F2 H049/L021: humanized 208F2; VH SEQ ID No. 41, VL SEQ ID No. 37 (antibody, V domains shown)
VH: QVQLVQSGAEVKKPGASVKVSCKASGYTFTSYYMHWVRQAPGQGLEWMGWIWPGDGSTKYAQKFQGRVTMTRDKSSSTVYMELSSLRSEDTAVYYCASPMITPNYAMDYWGQGTLVTVSS
VL: DIQMTQSPSSLSASVGDRVTITCRASQDISKYLNWYQQKPGKAPKLLIYYTSRLHSGVPSRFSGRGSGTDFSLTISSLQPEDFATYFCQQGSTLPYTFGGGTKVEIK
modifications: hz208F2 heavy chain H049, VH; hz208F2 Light chain L021, VL
B4: hz208F2 H076/L021: humanized 208F2; VH SEQ ID No. 55, VL SEQ ID No. 37 (antibody, V domains shown)
VH: QVQLVQSGAEVKKPGASVKVSCKASGYTFTSYYIHWVRQAPGQGLEWMGWIWPGDGSTKYAQKFQGRVTMTRDTSTSTVYMELSSLRSEDTAVYYCASPMITPNYAMDYWGQGTLVTVSS
VL: DIQMTQSPSSLSASVGDRVTITCRASQDISKYLNWYQQKPGKAPKLLIYYTSRLHSGVPSRFSGRGSGTDFSLTISSLQPEDFATYFCQQGSTLPYTFGGGTKVEIK
modifications: hz208F2 heavy chain H076, VH; hz208F2 Light chain L021, VL

Legend:
rhIGF-1R = biological target: T1, rhIGF-1R (Homo sapiens, UniProt P08069); test: direct ELISA on rhIGF-1R coating (816C12, 810D12); format: binding; settings: for OD values obtained at 5 μg/ml by ELISA, rhIGF-1R coating: OD at 450 nm; for EC50: ELISA dose response, Prism
T1 construct: poorly recognize the rhIGF-1R ECD protein when directly coated to ELISA plates; purchased R&D Systems 391-GR
Description: (§1) Further characterizations of 816C12 and 810D12 were then performed using hybridoma supernatant such as rhIGF-1R or rmIGF-1R or rhIR ELISA. In all direct ELISAs, proteins of interest were immobilized (1 μg/ml) to the bottom of each well. After saturation, hybridoma supernatants were added to the wells. After a 1-hour incubation period and a washing step, a solution of goat anti-mouse IgG—HRP labelled polyclonal antibody was used for detection, prior to the addition of the TMB substrate. The reaction was stopped with a 1M H2SO4 solution before reading the OD with a spectrophotometer at a 450 nm wavelength.
The dose response curves for the second IGF-1R antibodies on rhIGF-1R coating are presented in FIG. 1 for the 816C12 and in FIG. 1B for the 810D12. The values of the EC50 are determined using Prism application.

rmIGF-1R = rmIGF-1R (Mus musculus, UniProt Q60751); test: direct ELISA on rmIGF-1R coating (816C12, 810D12); format: binding, murine; settings: for OD values obtained at 5 μg/ml by ELISA, rmIGF-1R coating: OD at 450 nm; for binding to the murine form of the IGF-1R: ELISA
Description: as §1

rhIR = rhIR (Homo sapiens, UniProt P06213); test: direct ELISA on rhIR coating (816C12, 810D12); format: binding; settings: for OD values obtained at 5 μg/ml by ELISA, rhIR coating: OD at 450 nm; for binding to the human IR: ELISA
Description: as §1

[1] = biological target: T2, IGF-1R, MCF-7 tumor cells (Homo sapiens, UniProt P08069); test: IHC detection of IGF-1R on MCF-7 xenograft sections; design: key: No reactivity or membranous reactivity in less than 10% of tumour cells; 1+: Faint/barely perceptible membranous reactivity is detected in more than 10% of tumour cells. The cells are immunoreactive only in part of the membrane.; 2+: Weak to moderate complete membranous reactivity is seen in more than 10% of tumour cells.; 3+: Strong complete reactivity is seen in more than 10% of tumour cells; settings: membranous algorithm; antibody 5 μg/ml; paraffin embedded tumor
T2 construct: from tissue; host or cells: MCF-7 xenograft tumour grown in Swiss/Nude mice, paraffin sections
Description: (§2) Sections of tissue from MCF-7 xenograft were deparaffinized, rehydrated, and placed in Target Retrieval Buffer 1× (Dako S1699) in a boiling bath pre-warm at 98° C. for heat-induced epitope retrieval at 98° C. for 40 minutes then 20 additional minutes in the Target Retrieval Buffer. After 3 washes in Tris Buffer Saline-0.05% tween 20 (TBS-T) (Dako S3006) the Endogenous peroxidase activity was blocked using Peroxidase Blocking Reagent (Dako K4007) for five minutes. Sections were washed with TBS-T and incubated a blocking reagent (UltraV block-TA-125UB-LabVision) for 5 minutes before incubation with either the 816C12 monoclonal antibody (at 5 μg/ml) or mouse IgG1/kappa (5 μg/ml, X0931, Dako) as negative control for 1 hours at room temperature. Sections were washed with TBS-T and incubated with Envision (Dako) for 30 minutes. Diaminobenzidine was used for development of a brown reaction product (Dako K3468). The slides were immersed in hematoxylin for 2 minutes to counterstain (Dako S3309).

IGF-1R, SBC-5 tumor = biological target: T3, IGF-1R, SBC-5 tumor (Homo sapiens, UniProt P08069); test: IHC detection of IGF-1R on SBC-5 xenograft sections; design: key: No reactivity or membranous reactivity in less than 10% of tumour cells; 1+: Faint/barely perceptible membranous reactivity is detected in more than 10% of tumour cells. The cells are immunoreactive only in part of the membrane.; 2+: Weak to moderate complete membranous reactivity is seen in more than 10% of tumour cells.; 3+: Strong complete reactivity is seen in more than 10% of tumour cells; settings: same protocol as MCF-7; paraffin embedded tumor
T3 construct: from tissue; host or cells: SBC-5 xenograft tumour grown in athymic mice, paraffin sections
Description: as §2
Level of IGF-1R was analyzed using the same protocol described in section 2.1 of the example 2 before.

soluble form of h-IGF1R = biological target: T4, soluble form of h-IGF1R (Homo sapiens, UniProt P08069); test: Biacore binding competition on captured soluble h-IGF1R; settings: antibodies 50 μg/ml, 25° C.
T4 construct: a heterotetramer composed by two alpha chains and two extracellular domains of the beta chains; made in house
Text: The experiment was run on a Biacore X100 device based on the Surface Plasmon Resonance technology. A CM5 sensor chip was activated with a mouse anti-polyHistidine IgG1 monoclonal antibody chemically linked to the carboxymethyldextran matrix using the amine coupling chemistry. Typically, 12451 RU and 12257 RU of antibodies were grafted on the flowcell 1 (FC1) and flowcell 2 (FC2) respectively. The classical HBS-EP+ buffer was used as the running buffer. This buffer was also used for the preparation of the solutions of the proteins. The experiment was carried at 25° C. and at a flow rate of […].
The soluble form of IGF1R produced in house is a heterotetramer composed by two alpha chains and two extracellular domains of the beta chains completed by a 6 Histidine sequence at their C-terminal end. The protein is injected during one minute on the FC2 at the concentration of 30 μg/ml (about 80 nM). The antibodies are injected at the concentration of 50 μg/ml (about 330 nM). Either a first antibody solution (FIGS. 35B and 35D) or the running buffer (FIGS. 35A and 35C) is injected during 90 s on both flowcells. A second antibody solution is then injected on both flow cells. The absence of binding of the second antibody after the binding of the first antibody is the proof that both antibodies bind to a nearby site on the antigen (FIG. 35B) At the opposite the binding of the second antibody after the binding of the first antibody is the proof that the binding site of the second antibody is out and away of the binding site of the first antibody (FIG. 35D). At the end of each cycle, the sensor chip surface is regenerated by an injection of a Glycine, HCl 10 mM pH 1.5 buffer during 30 s.
The levels of binding of the Ac2 (arrows) without (FIGS. 35A and 35B) or with an Ac1 (FIGS. 35C and 35D) were recorded 20 s after the end of the injection. The data are represented on the histogram graph in FIG. 36.

[2] = biological target: T5, MCF-7 breast adenocarcinoma cell line (Homo sapiens, UniProt P08069); test: FACS binding of humanized variants on MCF-7
T5 construct: host or cells: MCF-7
Description: The binding properties of the humanized variants were evaluated by FACS analyses on the human MCF-7 breast adenocarcinoma cell line and the monkey cell line Cos-7 using increasing antibody concentrations. For that purpose, cells (1×10^6 cells/ml) were incubated with anti-IGF-1R antibodies for 20 min. at 4° C. in FACS buffer (PBS, 0.1% BSA, 0.01% NaN3). They were then washed 3 times and incubated with the appropriate secondary antibody coupled with Alexa 488 for 20 additional minutes at 4° C. in the dark before being washed 3 times in FACS buffer. The binding of anti-IGF-1R antibodies was immediately performed on viable cells which were identified using propidium iodide (that stains dead cells). The EC50 of binding expressed in molarity (M) was calculated using a nonlinear regression analysis (GraphPad Prims 4.0).

rmIGF-1R, sequence (Q60751 31-1373): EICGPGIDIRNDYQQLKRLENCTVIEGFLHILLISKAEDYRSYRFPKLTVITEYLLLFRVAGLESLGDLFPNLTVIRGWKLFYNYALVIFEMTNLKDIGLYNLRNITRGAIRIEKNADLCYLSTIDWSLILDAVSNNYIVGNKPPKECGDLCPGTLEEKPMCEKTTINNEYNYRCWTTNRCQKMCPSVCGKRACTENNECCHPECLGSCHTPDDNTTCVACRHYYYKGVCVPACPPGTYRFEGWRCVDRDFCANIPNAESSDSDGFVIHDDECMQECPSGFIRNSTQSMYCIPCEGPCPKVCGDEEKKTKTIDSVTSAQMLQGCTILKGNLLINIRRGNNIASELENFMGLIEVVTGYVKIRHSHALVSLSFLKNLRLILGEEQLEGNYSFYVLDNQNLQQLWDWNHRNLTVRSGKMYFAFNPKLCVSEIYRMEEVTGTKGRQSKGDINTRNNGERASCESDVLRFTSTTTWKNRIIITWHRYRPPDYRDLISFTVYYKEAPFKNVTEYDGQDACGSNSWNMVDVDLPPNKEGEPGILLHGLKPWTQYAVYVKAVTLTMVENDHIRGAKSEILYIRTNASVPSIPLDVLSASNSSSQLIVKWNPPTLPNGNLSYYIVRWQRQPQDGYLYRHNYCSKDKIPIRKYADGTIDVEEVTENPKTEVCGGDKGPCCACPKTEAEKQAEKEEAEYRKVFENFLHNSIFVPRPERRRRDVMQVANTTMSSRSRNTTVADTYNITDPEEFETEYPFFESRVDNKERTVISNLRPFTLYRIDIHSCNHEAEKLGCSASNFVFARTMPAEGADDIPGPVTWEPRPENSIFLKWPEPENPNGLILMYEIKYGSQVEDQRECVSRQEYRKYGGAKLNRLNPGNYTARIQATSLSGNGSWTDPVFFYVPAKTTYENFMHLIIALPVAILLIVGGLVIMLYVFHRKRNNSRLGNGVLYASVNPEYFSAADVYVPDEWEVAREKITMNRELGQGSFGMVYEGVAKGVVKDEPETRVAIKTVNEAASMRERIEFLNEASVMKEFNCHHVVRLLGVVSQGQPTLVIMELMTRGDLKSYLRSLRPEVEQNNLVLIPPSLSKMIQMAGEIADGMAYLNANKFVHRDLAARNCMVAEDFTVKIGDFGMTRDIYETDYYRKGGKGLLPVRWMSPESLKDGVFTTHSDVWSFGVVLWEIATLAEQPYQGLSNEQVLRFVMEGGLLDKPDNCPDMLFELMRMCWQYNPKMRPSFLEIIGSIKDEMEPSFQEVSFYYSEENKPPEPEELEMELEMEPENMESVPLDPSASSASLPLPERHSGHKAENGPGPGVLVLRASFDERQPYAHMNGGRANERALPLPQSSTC

Molecule | OD values obtained at 5 μg/ml by ELISA, rhIGF-1R coating (rhIGF-1R) | EC50 (rhIGF-1R) [nM] | OD values obtained at 5 μg/ml by ELISA, rmIGF-1R coating (rmIGF-1R) | binding to the murine form of the IGF-1R (rmIGF-1R) | OD values obtained at 5 μg/ml by ELISA, rhIR coating (rhIR) | binding to the human IR (rhIR) | IHC scoring of the staining of MCF-7 tumor cells [1] | IHC scoring of IGF-1R in SBC-5 tumor (IGF-1R, SBC-5 tumor) | binding as Ac2 after Hz208F2-4 injected as Ac1 (soluble form of h-IGF1R) | EC50 [2] [nM]
B1 | 2.136 | 0.51 | 1.293 | do not bind | 0.048 | do not bind | 3+ | 1+ | practically no effect | –
B2 | 2.622 | 0.41 | 0.065 | do not bind | 0.055 | do not bind | 3+ | 1+ | practically no effect | –
B3 | – | – | – | – | – | – | – | – | – | 0.66
B4 | – | – | – | – | – | – | – | – | – | 0.58
